The term stoichiometry N denotes a count of units in the complex or per binding partner.

For the assay, the target named is monomeric red fluorescent protein (mRFP). Briefly: native MS; ESI-TWIMS-MS (nanoESI, Synapt HDMS), purified protein in 50 mM ammonium acetate; gas phase; self-association.

Consider “monomeric red fluorescent protein (mRFP)”, for which the stoichiometry N turned out to be 2.
